Laboratory results published in the DeepSol protein solubility set.

assay: soluble on expression in E. coli; label from the status in PepcDB or PDB records

Soluble on expression in E. coli, soluble:
GSSGSSGMKQATRKPTTPGDILLYEYLEPLDLKINELAELLHVHRNSVSALINNNRKLTTEMAFRLAKVFDTTVDFWLNLQAAVDLWEVENNMRTQEELGRIETVAEYLARREERAKKVA
GSSGSSGNWIDVRYDLEKIESLIQSIHIDTTLYTDSDFHPSCKVTAMNCFLLELQVILHEYSNMTLNETVRNVLYLANSTLSSNKNVAESGCKECEELEEKTFTEFLQSFIRIVQMFINTS
GSSNSHRGLAPTNVDFAFNLYQRLVALNPDKNTLISPVSISMALAMVSLGSAQTQSLQSLGFNLTETSEAEIHQSFQYLNYLLKQSDTGLEMNMGNAMFLLQKLKLKDSFLADVKQYYESEALAIDFEDWTKASQQINQHVKDKTQGKIEHVFSDLDSPASFILVNYIFLRGIWELPFSPENTREEDFYVNETSTVKVPMMVQSGSIGYFRDSVFPCQLIQMDYVGNGTAFFILPDQGQMDTVIAALSRDTIDRWGKLMTPRQVNLYIPKFSMSDTYDLKDVLEDLNIKDLLTNQSDFSGNTKDVPLTLTMVHKAMLQLDEGNVLPNSTNGAPLHLRSEPLDIKFNKPFILLLFDKFTWSSLMMSQVVNPA
GSTAIGINDTYSEVKSDLAQQKAEMELSDLIRKGYHKALVKLKLKKNTVDDISESLRQGGGKLNFDELRQDLKGKGHTDAEIEAIFTKYDQDGDQELTEHEHQQMRDDLEKEREDLDLDHSSL
GSTERPVAGPYITFTDAVNETTIMLKWMYIPASNNNTPIHGFYIYYRPTDSDNDSDYKKDMVEGDKYWHSISHLQPETSYDIKMQCFNEGGESEFSNVMICETKARKSSGQ
GTDDEEKDNNGQGSVSVETNYLPIADPYVMFYNNKYYAYGTGGTTAGEGFACFSSDDLKNWKREGQALSATDSYGTWGFWAPEVYYVESKKKFYLFYSAEEHICVATSTTPEGPFRQEVKQPIWSEKSIDTSLFIDDDGTPYLYFVRFTDGNVIWVAQMTDDLMSIKTETLNQCIKAEVSWELLQGKVAEGPSLLKKNGVYYLIYSANHYENKGYGVGYATSDTPMGPWVKYSKNPLLQGDAATGLVGTGHGAPFQCKDGSWKYIFHAHWSAAEIQPRTSYIKDFAISDQGVVTISGTVIKPRVLK
GVFTFEDEINSPVAPATLYKALVTDADNVIPKALDSFKSVENVEGNGGPGTIKKITFLEDGETKFVLHKIESIDEANLGYSYSVVGGAALPDTAEKITFDSKLVAGPNGGSAGKLTVKYETKGDAEPNQDELKTGKAKADALFKAIEAYLLAHPDYN
HGPWPAAGAWELTILHTNDVHSRLEQTSEDSSKCVNASRCMGGVARLFTKVQQIRRAEPNVLLLDAGDQYQGTIWFTVYKGAEVAHFMNALRYDAMALGNHEFDNGVEGLIEPLLKEAKFPILSANIKAKGPLASQISGLYLPYKVLPVGDEVVGIVGYTSKETPFLSNPGTNLVFEDEITALQPEVDKLKTLNVNKIIALGHSGFEMDKLIAQKVRGVDVVVGGHSNTFLYTGNPPSKEVPAGKYPFIVTSDDGRKVPVVQAYAFGKYLGYLKIEFDERGNVISSHGNPILLNSSIPEDPSIKADINKWRIKLDNYSTQELGKTIVYLDGSSQSCRFRECNMGNLICDAMINNNLRHTDEMFWNHVSMCILNGGGIRSPIDERNNGTITWENLAAVLPFGGTFDLVQLKGSTLKKAFEHSVHRYGQSTGEFLQVGGIHVVYDLSRKPGDRVVKLDVLCTKCRVPSYDPLKMDEVYKVILPNFLANGGDGFQMIKDELLRHDSGDQDINVVSTYISKMKVIYPAVEGRIKFSTGSVRASSPSPL
